Target: low-density lipoprotein receptor-related protein-1 (LRP-1), endogenous, human cells (human (endogenous in FTC-133))

Substance: β1-integrin, endogenous, human cells (from UniProt P05556 21-798) (receptor)
- biotin-based internalisation of cell surface β1-integrin in FTC-133 cells (10 min at 37°C), decrease with 500 nM RAP against untreated cells: 2 fold
- percentage of Rab5a early endosomes positive for β1-integrin in FTC-133 cells (confocal), reduction with 500 nM RAP against control cells: 25%

Reference: article PMC5667986
